From PMC5066740

Tests used:
[1] = molecular target: MtTT8 (Medicago truncatula)
[2] = molecular target: MtWD40-1 (Medicago truncatula)

Sequence of MtTT8 (Medicago truncatula) (main, as listed by the source): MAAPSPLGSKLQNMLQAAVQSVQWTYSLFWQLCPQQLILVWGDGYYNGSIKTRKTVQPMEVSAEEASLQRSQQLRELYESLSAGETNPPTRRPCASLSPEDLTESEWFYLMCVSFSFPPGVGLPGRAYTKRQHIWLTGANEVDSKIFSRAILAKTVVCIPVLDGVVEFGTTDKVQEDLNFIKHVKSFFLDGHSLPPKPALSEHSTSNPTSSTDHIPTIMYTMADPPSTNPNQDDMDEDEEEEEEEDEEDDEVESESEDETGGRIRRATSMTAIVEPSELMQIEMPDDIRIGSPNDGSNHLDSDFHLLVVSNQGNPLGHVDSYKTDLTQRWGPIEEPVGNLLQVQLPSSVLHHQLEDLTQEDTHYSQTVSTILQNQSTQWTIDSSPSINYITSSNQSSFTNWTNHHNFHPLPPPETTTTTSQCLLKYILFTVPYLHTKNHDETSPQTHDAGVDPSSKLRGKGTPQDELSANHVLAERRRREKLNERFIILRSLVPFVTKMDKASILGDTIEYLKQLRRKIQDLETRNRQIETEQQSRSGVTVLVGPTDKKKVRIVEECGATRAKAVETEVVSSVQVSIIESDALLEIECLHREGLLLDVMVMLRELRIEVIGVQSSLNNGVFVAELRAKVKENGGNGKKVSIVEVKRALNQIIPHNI

Substance: Medicago PROANTHOCYANIDIN REGULATOR (MtPAR) (natural protein)
- ANR promoter::luciferase reporter activity in Arabidopsis leaves co-bombarded with 35S-driven MtPAR, MtTT8 and MtWD40-1 effectors, against empty vector controls [1]: 9 fold
- ANR promoter::luciferase reporter activity in Arabidopsis leaves co-bombarded with 35S-driven MtPAR, MtTT8 and MtWD40-1 effectors, against empty vector controls [2]: 9 fold
